The array DNA melting data of Ke et al.

Test: melting temperature; melt of duplexes
Conditions: sodium 0.0675 M; strand 1 µM

| Substance | Tm [°C] |
| --- | --- |
| CGACGTGCCGAATGTGCTG+CAGCACATACGGCACGTCG ((((((((((.((((((((+)))))))).)))))))))) | 60.1 |
| CGACGTGCGCCATGTGCTG+CAGCACATAAGGCACGTCG ((((((((...((((((((+))))))))...)))))))) | 48.6 |
| CGACGTGCGCCATGTGCTG+CAGCACATTACGCACGTCG (((((((((..((((((((+))))))))..))))))))) | 52.3 |
| CGACGTGCTCAATGTGCTG+CAGCACATTTAGCACGTCG (((((((((.(((((((((+))))))))).))))))))) | 54.7 |
| CGACGTGCAGTATGTGCTG+CAGCACATGCGGCACGTCG ((((((((.(.((((((((+)))))))).).)))))))) | 55.3 |
| CGACGTGCGTTATGTGCTG+CAGCACATCGGGCACGTCG ((((((((...((((((((+))))))))...)))))))) | 48.6 |
| CGACGTGCTGAATGTGCTG+CAGCACATCTTGCACGTCG ((((((((...((((((((+))))))))...)))))))) | 50.5 |
| CGACGTGCGGAATGTGCTG+CAGCACATTCCGCACGTCG (((((((((((((((((((+))))))))))))))))))) | 66.6 |
| CGACGTGCGCCATGTGCTG+CAGCACATTAAGCACGTCG ((((((((...((((((((+))))))))...)))))))) | 52.1 |
| CGACGTGCATGATGTGCTG+CAGCACATCTTGCACGTCG (((((((((.(((((((((+))))))))).))))))))) | 58.3 |
| CGACGTGCTGTATGTGCTG+CAGCACATTTAGCACGTCG (((((((((..((((((((+))))))))..))))))))) | 51.5 |
| CGACGTGCTACATGTGCTG+CAGCACATCGTGCACGTCG ((((((((...((((((((+))))))))...)))))))) | 46.6 |
| CGACGTGCGAGATGTGCTG+CAGCACATCTGGCACGTCG ((((((((.((((((((((+)))))))))).)))))))) | 59 |
| CGACGTGCGTCATGTGCTG+CAGCACATGAGGCACGTCG ((((((((.((((((((((+)))))))))).)))))))) | 60.7 |
| CGACGTGCGGAATGTGCTG+CAGCACATTGTGCACGTCG ((((((((..(((((((((+)))))))))..)))))))) | 53.9 |
| CGACGTGCAATATGTGCTG+CAGCACATGGTGCACGTCG (((((((((..((((((((+))))))))..))))))))) | 51 |
| CGACGTGCAGTATGTGCTG+CAGCACATCAGGCACGTCG ((((((((...((((((((+))))))))...)))))))) | 50.2 |
| CGACGTGCGAAATGTGCTG+CAGCACATCATGCACGTCG ((((((((...((((((((+))))))))...)))))))) | 49.9 |
| CGACGTGCGAAATGTGCTG+CAGCACATCGGGCACGTCG ((((((((...((((((((+))))))))...)))))))) | 48.6 |
| CGACGTGCCCCATGTGCTG+CAGCACATTGAGCACGTCG ((((((((.(.((((((((+)))))))).).)))))))) | 50.1 |
| CGACGTGCCATATGTGCTG+CAGCACATGCGGCACGTCG (((((((((..((((((((+))))))))..))))))))) | 54.1 |
| CGACGTGCTGGATGTGCTG+CAGCACATGGCGCACGTCG ((((((((...((((((((+))))))))...)))))))) | 49.6 |
| CGACGTGCCAAATGTGCTG+CAGCACATTAGGCACGTCG (((((((((.(((((((((+))))))))).))))))))) | 57.8 |
| CGACGTGCCCGATGTGCTG+CAGCACATCAAGCACGTCG ((((((((..(((((((((+)))))))))..)))))))) | 52.8 |

| Substance | Tm [°C] |
| --- | --- |
| CGACGTGCCCAATGTGCTG+CAGCACATTGTGCACGTCG ((((((((.((((((((((+)))))))))).)))))))) | 54.7 |
| CGACGTGCTAGATGTGCTG+CAGCACATGCGGCACGTCG ((((((((...((((((((+))))))))...)))))))) | 50.3 |
| CGACGTGCGTGATGTGCTG+CAGCACATCGTGCACGTCG ((((((((..(((((((((+)))))))))..)))))))) | 54.5 |
| CGACGTGCCTTATGTGCTG+CAGCACATGTGGCACGTCG (((((((((..((((((((+))))))))..))))))))) | 54.4 |
| CGACGTGCCTCATGTGCTG+CAGCACATGTGGCACGTCG (((((((((.(((((((((+))))))))).))))))))) | 59.8 |
| CGACGTGCGTCATGTGCTG+CAGCACATAACGCACGTCG ((((((((((.((((((((+)))))))).)))))))))) | 58 |
| CGACGTGCACAATGTGCTG+CAGCACATTCTGCACGTCG (((((((((.(((((((((+))))))))).))))))))) | 51.7 |
| CGACGTGCAAAATGTGCTG+CAGCACATCCGGCACGTCG ((((((((...((((((((+))))))))...)))))))) | 49.1 |
| CGACGTGCCAAATGTGCTG+CAGCACATAAAGCACGTCG ((((((((...((((((((+))))))))...)))))))) | 49.9 |
| CGACGTGCACGATGTGCTG+CAGCACATTCCGCACGTCG ((((((((...((((((((+))))))))...)))))))) | 44.5 |
| CGACGTGCCCCATGTGCTG+CAGCACATCTTGCACGTCG ((((((((...((((((((+))))))))...)))))))) | 46.7 |
| CGACGTGCGGTATGTGCTG+CAGCACATTGGGCACGTCG ((((((((...((((((((+))))))))...)))))))) | 49.8 |
| CGACGTGCCTCATGTGCTG+CAGCACATACGGCACGTCG (((((((((..((((((((+))))))))..))))))))) | 52.4 |
| CGACGTGCGGGATGTGCTG+CAGCACATACGGCACGTCG ((((((((.(.((((((((+)))))))).).)))))))) | 55.6 |
| CGACGTGCTTCATGTGCTG+CAGCACATTGTGCACGTCG ((((((((...((((((((+))))))))...)))))))) | 44.4 |
| CGACGTGCATGATGTGCTG+CAGCACATATGGCACGTCG ((((((((...((((((((+))))))))...)))))))) | 49.7 |
| CGACGTGCTTTATGTGCTG+CAGCACATATGGCACGTCG ((((((((..(((((((((+)))))))))..)))))))) | 51.6 |
| CGACGTGCTGTATGTGCTG+CAGCACATGCAGCACGTCG ((((((((((.((((((((+)))))))).)))))))))) | 60.3 |
| CGACGTGCGAGATGTGCTG+CAGCACATATAGCACGTCG ((((((((.(.((((((((+)))))))).).)))))))) | 54.6 |
| CGACGTGCAAAATGTGCTG+CAGCACATTCAGCACGTCG ((((((((..(((((((((+)))))))))..)))))))) | 52.1 |
| CGACGTGCCCTATGTGCTG+CAGCACATATTGCACGTCG ((((((((..(((((((((+)))))))))..)))))))) | 48.9 |
| CGACGTGCAGGATGTGCTG+CAGCACATCTGGCACGTCG ((((((((..(((((((((+)))))))))..)))))))) | 57.1 |
| CGACGTGCGCCATGTGCTG+CAGCACATAAAGCACGTCG ((((((((...((((((((+))))))))...)))))))) | 53.6 |
| CGACGTGCACTATGTGCTG+CAGCACATCGGGCACGTCG ((((((((.(.((((((((+)))))))).).)))))))) | 51.1 |

| Substance | Tm [°C] |
| --- | --- |
| CGACGTGCTAGATGTGCTG+CAGCACATCCAGCACGTCG (((((((((.(((((((((+))))))))).))))))))) | 56.1 |
| CGACGTGCGGAATGTGCTG+CAGCACATTTTGCACGTCG ((((((((..(((((((((+)))))))))..)))))))) | 55.2 |
| CGACGTGCGCTATGTGCTG+CAGCACATTCCGCACGTCG (((((((((..((((((((+))))))))..))))))))) | 52.1 |
| CGACGTGCACGATGTGCTG+CAGCACATCCCGCACGTCG ((((((((..(((((((((+)))))))))..)))))))) | 49.9 |
| CGACGTGCACCATGTGCTG+CAGCACATCAGGCACGTCG ((((((((...((((((((+))))))))...)))))))) | 42.9 |
| CGACGTGCTTAATGTGCTG+CAGCACATCGTGCACGTCG ((((((((...((((((((+))))))))...)))))))) | 43.3 |
| CGACGTGCAACATGTGCTG+CAGCACATATAGCACGTCG ((((((((.(.((((((((+)))))))).).)))))))) | 49.1 |
| CGACGTGCTGCATGTGCTG+CAGCACATAACGCACGTCG ((((((((...((((((((+))))))))...)))))))) | 49.4 |
| CGACGTGCATCATGTGCTG+CAGCACATCCAGCACGTCG ((((((((...((((((((+))))))))...)))))))) | 46.6 |
| CGACGTGCCATATGTGCTG+CAGCACATATGGCACGTCG (((((((((((((((((((+))))))))))))))))))) | 63 |
| CGACGTGCTTCATGTGCTG+CAGCACATGACGCACGTCG ((((((((.((((((((((+)))))))))).)))))))) | 55.1 |
| CGACGTGCCTGATGTGCTG+CAGCACATCTGGCACGTCG (((((((((.(((((((((+))))))))).))))))))) | 61.1 |
| CGACGTGCCAAATGTGCTG+CAGCACATTACGCACGTCG ((((((((..(((((((((+)))))))))..)))))))) | 50.5 |
| CGACGTGCGCCATGTGCTG+CAGCACATGACGCACGTCG (((((((((.(((((((((+))))))))).))))))))) | 59.3 |
| CGACGTGCTAAATGTGCTG+CAGCACATTGTGCACGTCG ((((((((..(((((((((+)))))))))..)))))))) | 50.7 |
| CGACGTGCAGGATGTGCTG+CAGCACATGCCGCACGTCG ((((((((.(.((((((((+)))))))).).)))))))) | 54 |
| CGACGTGCAGCATGTGCTG+CAGCACATATGGCACGTCG ((((((((...((((((((+))))))))...)))))))) | 46.7 |
| CGACGTGCCGGATGTGCTG+CAGCACATAAAGCACGTCG ((((((((...((((((((+))))))))...)))))))) | 50.2 |
| CGACGTGCGCGATGTGCTG+CAGCACATAAAGCACGTCG ((((((((...((((((((+))))))))...)))))))) | 54 |
| CGACGTGCCTGATGTGCTG+CAGCACATGCAGCACGTCG ((((((((...((((((((+))))))))...)))))))) | 50.4 |
| CGACGTGCGATATGTGCTG+CAGCACATCAGGCACGTCG ((((((((...((((((((+))))))))...)))))))) | 49.5 |
| CGACGTGCCGGATGTGCTG+CAGCACATATGGCACGTCG (((((((((..((((((((+))))))))..))))))))) | 57.2 |
| CGACGTGCAATATGTGCTG+CAGCACATCAGGCACGTCG ((((((((...((((((((+))))))))...)))))))) | 48.7 |
| CGACGTGCAGGATGTGCTG+CAGCACATGCTGCACGTCG ((((((((((.((((((((+)))))))).)))))))))) | 59.6 |
